Experimental data published in PMC4493999.

Biological target: anaphase-promoting complex/cyclosome (APC/C) complex (human (endogenous in HeLa)) (UniProt P30260)
Assay: co-IP

UniProt P30260, sequence (P30260 whole entry, looked up, one chain of several): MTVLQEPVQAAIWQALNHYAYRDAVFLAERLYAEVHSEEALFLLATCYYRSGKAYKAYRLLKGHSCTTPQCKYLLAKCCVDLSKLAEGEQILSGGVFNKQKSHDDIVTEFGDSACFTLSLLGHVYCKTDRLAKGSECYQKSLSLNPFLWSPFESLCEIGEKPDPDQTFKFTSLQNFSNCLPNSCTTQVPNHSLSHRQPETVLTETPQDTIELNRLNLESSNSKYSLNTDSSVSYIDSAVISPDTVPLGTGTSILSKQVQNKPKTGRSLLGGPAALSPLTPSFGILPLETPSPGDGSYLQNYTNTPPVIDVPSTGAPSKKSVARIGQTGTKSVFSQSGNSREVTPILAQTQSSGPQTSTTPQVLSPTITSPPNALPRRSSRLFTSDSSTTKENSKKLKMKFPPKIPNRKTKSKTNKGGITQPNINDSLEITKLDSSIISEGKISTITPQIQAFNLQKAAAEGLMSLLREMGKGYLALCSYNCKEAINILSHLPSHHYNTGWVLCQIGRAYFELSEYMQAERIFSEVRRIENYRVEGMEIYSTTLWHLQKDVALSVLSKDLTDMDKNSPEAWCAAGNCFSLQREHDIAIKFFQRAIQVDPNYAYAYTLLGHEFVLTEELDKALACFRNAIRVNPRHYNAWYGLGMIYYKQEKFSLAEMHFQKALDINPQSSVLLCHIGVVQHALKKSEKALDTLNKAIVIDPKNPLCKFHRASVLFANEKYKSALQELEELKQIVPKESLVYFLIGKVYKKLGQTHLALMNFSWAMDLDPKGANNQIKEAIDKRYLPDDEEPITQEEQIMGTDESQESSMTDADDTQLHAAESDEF

HA-tagged human Cdh1 S40D (from UniProt Q9UM11 1-496) (natural protein)
amount coprecipitated, percent of that of Cdh1 S40A: 20%
amount coprecipitated, percent of that of wild-type Cdh1: 30%
